According to US20240174744A1 (SCIRHOM, published 2024):

T1: dog iRhom2 full length wild type, C-terminally tagged with 3 consecutive copies of the T7 epitope (dog, UniProt Q00M95 1-827)
T1 construct: whole, on cells; also called Dog-iR2-FL-WT-T7
T1 sequence: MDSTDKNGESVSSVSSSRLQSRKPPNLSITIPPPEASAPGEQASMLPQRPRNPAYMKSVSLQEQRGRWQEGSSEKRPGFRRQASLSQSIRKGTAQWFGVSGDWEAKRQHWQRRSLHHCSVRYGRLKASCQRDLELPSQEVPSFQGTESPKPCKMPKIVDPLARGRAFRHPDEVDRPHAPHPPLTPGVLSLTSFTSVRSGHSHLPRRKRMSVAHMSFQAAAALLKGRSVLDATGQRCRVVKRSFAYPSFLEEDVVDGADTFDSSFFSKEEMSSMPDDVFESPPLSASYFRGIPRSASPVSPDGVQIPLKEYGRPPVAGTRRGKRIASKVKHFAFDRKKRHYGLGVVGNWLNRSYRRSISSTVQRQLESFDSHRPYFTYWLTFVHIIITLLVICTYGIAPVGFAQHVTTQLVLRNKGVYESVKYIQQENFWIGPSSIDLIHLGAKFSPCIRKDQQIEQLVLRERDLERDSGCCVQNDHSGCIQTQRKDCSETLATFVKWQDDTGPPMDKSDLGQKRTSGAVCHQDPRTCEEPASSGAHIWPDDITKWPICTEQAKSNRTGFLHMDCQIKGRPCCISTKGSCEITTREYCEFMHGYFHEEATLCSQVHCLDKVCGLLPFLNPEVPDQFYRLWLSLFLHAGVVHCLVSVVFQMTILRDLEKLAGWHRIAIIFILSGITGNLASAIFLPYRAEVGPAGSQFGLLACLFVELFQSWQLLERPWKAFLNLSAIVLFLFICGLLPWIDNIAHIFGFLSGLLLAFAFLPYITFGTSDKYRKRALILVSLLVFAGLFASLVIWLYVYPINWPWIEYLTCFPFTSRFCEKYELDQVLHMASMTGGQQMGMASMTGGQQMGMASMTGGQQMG

B1: antibody 3 (antibody, V domains shown)
VH: QVTLKESGPGILQPSQTLSLTCSFSGFSLTTFAMGIGWVRQPSGKGLEWLAHIWWDGEKYNNPVLKSRLTISKDTSKNQVFLRIANVDTPDTATYYCARISSIYYIIDNWGQGTSVTVSS
VL: DIVLTQSPATLSVTPGHSVSLSCRASQSISNNLHWYQKKSHESPRLLIKYVSQSISGIPSRFSGSGSGTDFTLSINSVETEDFGMYFCQQSYNWPLTFGAGTKLELK
notes: Mouse IgG, kappa light chain; also called clone #3; purified antibody 3
B2: antibody 5 (antibody, V domains shown)
VH: QVTLKESGPGILQPSQTLSLTCSFSGFSLSTFGMGVGWIRQPSGKGLEWLAHIWWDDEKYYNSALKSRLTISKATSKNQAFLKIANVDTADTATYYCARISNYGSNYWYFNVWGTGTTVTVSS
VL: QVVLTQSPALMSASPGEKVTMTCSAGSSVSCMYWYQQKPGSSPRVLIYDTSNLASGVPARFTGSGSGTSYSLTISRMEAEDAASYYCQQWNSYPLTFGAGTKLELK
notes: Mouse IgG, kappa light chain; also called clone #5; purified antibody 5

Molecular target: T1, dog iRhom2 full length wild type, …
Test: FACS, MEF-DKO-dog-iR2-FL-WT-T7 cells, 3 µg/ml
Method: In brief, immortalized MEF-DKO-EV control cells, MEF-DKO-rhesus-iR2-FL-WT-T7 cells, MEF-DKO-cyno-iR2-FL-WT-T7 cells, MEF-DKO-dog-iR2-FL-WT-T7 cells and MEF-DKO-rabbit-iR2-FL-WT-T7 cells, as well as their respective iRhom1 counterparts, were harvested with 10 mM EDTA in PBS, washed and resuspended in FACS buffer (PBS, 3% FBS, 0.05% sodium azide), and seeded in Nunc U-bottom 96-well plates (Thermo Fisher Scientific, USA) at approximately 3×10⁵ cells per well. To pellet cells and remove supernatants, the plates were centrifuged at 1,500 rpm and 4° C. for 3 minutes. For primary staining, cells were resuspended in 100 μl per well of either FACS buffer alone (controls), mouse monoclonal anti-T7 IgG (Merck Millipore, USA) at 3 μg/ml FACS buffer or the antibodies of the present disclosure also at 3 μg/ml FACS buffer and incubated on ice for 1 hour. Afterwards, plates were centrifuged at 1,500 rpm and 4° C. for 3 minutes and washed twice with 200 μl per well of FACS buffer. For secondary staining, cells were spun down and resuspended in 100 μl per well of PE-conjugated goat anti-mouse IgG F(ab′)2 detection fragment (Dianova, Germany) diluted 1:100 in FACS buffer. Protected from light, the cell suspensions were incubated on ice for 1 hour. […] Finally, cells were resuspended in 150 μl per well of FACS buffer and analyzed using a BD Accuri™ C6 Plus flow cytometer (Becton Dickinson, Germany).

Binder | binding result
B1 | binds
B2 | binds
